The nanobody polyreactivity screen of Harvey et al. (2022)

Test: yeast display, Sf9 membrane polyspecificity reagent, FACS + sequencing; frameworks hold sequencing errors
Outline: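 Sorting gates, low and high (top ~1%), were placed on anti-HA fluorescence to track expression and on streptavidin fluorescence to track reagent binding. A clone's polyreactivity label is taken from the gate it came out of. The reagent was 10% biotinylated, detergent-solubilized Sf9 membrane, applied for 1 hour at 4 °C to galactose-induced yeast display cells.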

Sequence	polyreactivity (PSR sort gate)
QVQLVESGGGLVQAGGSLRLSCAAYGSILGIYAMGGYRQAPGKERELVAAIRTSSASTYYADSVKGRFTISRDNAKNTVYLQMNSLKPEDSAVYYCAAYAFSYTPYYSWGQGTQVTVSS	high polyreactivity
QVQLVESGGGLVQAGGSLRLSCAASGRTFGRNVMGWYRQAPGKERELVAAISRSGGSTYYADSVKGRFTISRDNAKNTVYLQINSLKPEDTAVYYCAAYSVGDYYWGQGTQVTVSS	high polyreactivity
QVQHVESGGGLVQAGGSLSLICAASGSIFCYYAMGWYRKAPGKERELVAAIDSGGSTYYADSVKGRFTISRDNAKNTVYLQMNILKPEDTAVYYCAAGVSSFSPYDSWGQGTQVTVSS	low polyreactivity
QVQHVESGRGLVQAGGSLRLSCAASGSIQGGNARGCSSQAPGKESELVAAITFSGGGTYYADSVKGRLTISRDNAKNTVYLQMNSVKPEDTAVYYCAADIDGYTYEFDYWGQGTQVTVYS	low polyreactivity
QVQLVESGGGLVQAGGSLRLSCAASGFTFWNNAMGWYRQAPGKERELVAAISWSGGSTYYADSVKGRFTISRDNAKNTFDLQMNRLKPEDSAVYYCAAGDGPWLPRVHYGGYGYWGQGTQVTVSS	high polyreactivity
QVQLVESGGGLVQAGGILRLSCAASGSTFGYYAMGWYRPAPGKERELVAAIRSDDITYYADSVKGRFTISRDNAKNTVYLQMISLKPEDTAVYYCAVSQRYGGRRGCYWGQGTQVTVSS	low polyreactivity
QVQLVESGGGLVQAGGSLRLSCAASGRIFGNYAMGWYRQAPGKERELVAAITSGARTYYADSVKGRFTLSRDNAKNTVYLQMNSLKPEDTAVYYCAAYHKSYSNRYDYWGQGTHVTVSS	high polyreactivity
QVQLVESGGGLVQAGGSLRLSCAASGRTFRAYAMGWYRQAPGKERELVAAITGGGSTKYADSVKGRFTISRDNAKNTVYLQMNSLKPEETAVYYCAATGRSGVLSSYYYWGQGTQVTVSS	high polyreactivity
QVQLVESGGGLVQAGGSLRLSCAPSGSIFSAYAMGWYRQAPGKERELVAAITRGTSTNYADSVKGRFTISRDNAKNTVYLQMNSLKPEDTAVYYCAAEYGWYYVNFYYWGQGTQVTVSS	low polyreactivity
QVQLVESGGGLVQAGGSLRLSCAASGRTFTGYAMGWYRQAPGKERELVAAISASGGSTYYADSVKGRFTISRDIAKNTVYFQMNSLKPEDTAVYYCAAETWYSVLWEEGYDYWGQGTQVTVSS	low polyreactivity
QVQLVESGGGLVQAGGSLRLSCAASGSTFFTNVKGWYRQAPGKERELVAVIRWRGSDTYYADSVKGRFTISRDNAKNTVYLQMKSLKPEDTAFYYCNAKESFYPTTGEQGYSYAYWGQGTQLTVSS	low polyreactivity
QGQLVESGGGLVQAGGSLRLSCAASGSIFFGNAMGWYRQAPGKERELVAGITGGGSTYYADSVKGRFTISRDNAKNTVYLQMNSLKPEDTAVYYCNKKAYRKTGMDYWGQGTQVTVSS	low polyreactivity
QVQLVESGGGLVQAGGSLRLSCAASGITFYDYDMGWYIQAPGKERELVADISYSGGGTYYADSVKGRFTISRDNAKNTVYLQMNSLKPEDTAVYYCAADSQRYYGDYYWGQGTQVTVSS	high polyreactivity
QVQLVESGGGLVQAGGSLRLSCAASGSTFYRYAMGWYRQAPGKERELVARITQNGGSTYYADSVKGRFTISRDNAKNTVYLQMNSLKPEDTAVYYCADRWISVLSYGKYDYWGQGTQVTVSS	high polyreactivity
QVQLVESGGGLVQAGGSLRLSCAASGGIFYPYAMGWYRQAPGKERELVASIDVSDGSTYYADSVKGRFTISRDNAKNTVYLQMNSLKPEDTAVYYCAADRYSKAIDFEGDYWGQGTQVTVSS	low polyreactivity
QVQLVESGGGLVQAGGSLRLSCAASGFTFSTNAMGWYRQAPGKERELVAAISPDGGTYYADSVKGRFTISRDNAKNTVYLQMNSLKPEDTAVYYCAAVWGRGVWDLYDYWGQGTQVTVSS	low polyreactivity

Sequence	polyreactivity (PSR sort gate)
QVQLVESGGGLVQAGGSLRLSCAASGSIFVFYARGWSRQAPGKERELVAAITSGGRTYYADSVKGRFTISRDNAKNTVYLQMNSLKPEDTAVYYCNAVRFYSIGLGQDDYWGQGTQVTVSS	low polyreactivity
QVQLVESGGGLVQAGGSLRLSCAASGSTLFINAMGWYRQAPGKERELVAAITSGTSTNYADSVKGRFTISRDNAKNTVYLQMNSLKPEDTAVYYCAVDYWYVPYYWGQGTQVTVSS	low polyreactivity
QVQLVESGGGLVQAGGSLRLSCAASGRIFERNAMGWYRQAPGKERELVARITSGGGTYYADSVKGRFTISRDNAKNSVYLQMNSLKPEDTAVYYCAVQYLYRKYRRYDYWGQGTQVTVSS	high polyreactivity
QVQLVESGGGLVQAGGSLRLSCASSGIILYYYAMGWYRQAPGKERELVAAIDSGDSTDYADSVKGRFTISRDNAKNTVYLQMNSLKPEDTAVYYCAADSPVDEYYHWGQGTQVTVSS	low polyreactivity
QVQLVESGGGLVQAGVSLRLSCAASGNTFKYYPMGWYRQAPGKEWELVAGITGTGGRTNYADSVKGRFTISRDNAKNTVYLQMTSLKPEDTAVYYFAADYWWYTGYDYWGQGTQVTVSS	high polyreactivity
QVQLVESGGGLVQAGGSLRLSCAASGRTFHYYAMGWYRQAPGKERELVAGITGGGSTYYADSVKGRFTISRDNAKNTVYLQMNSLKPEDTAVYYCNARPYWFGSYGYWGQGTQVTVSS	low polyreactivity
QVQLVESGGGLVQAGGSLRLSCAASGITFRRYGMGWYRQAPGKERELVATITSSVGSRTYYADSVKGRFTISRDNAKNTVYLQMNSLKPEDTAVYYCAADHRVYDYEYWGQGTQVTVSS	low polyreactivity
QVHLVESGGGLVQAGGSLRLSCAASGFTFIRYAMGWYRQAPGKETELVAAISVSGGRTYYADSVKGRFTISRDNAKNTVYLQMNSLKPEDTAVYYCARRPSYYQGDYWGQGTQVTVSS	high polyreactivity
QVQLVESGGGLVQAGGSLRLSCAASGFNFYLNAMGWYRQAPGKERELVAAISSSGGITYYADSVKGRFTISRDNAKNTVYLQMNSLKPEDTADYSCAAYWPKYRYEAERDYWGQGTQVTVSS	low polyreactivity
QVQLVESVGGLVQAGGSLRLSCAASGIIFARYAMGWYRQAPGKERELVASISWSTGNTYYADSVKGRFTISRDNAKNTVYLQMNSLKPEDTAVYYCAATYRRKYWTMDYWGQGTQVTVSS	high polyreactivity
QVQLVESGGGLVQAGGSLRLSCAASGYIFQDYAMGWYRQAPAKERELVARISAGGGRTYYADSVKGRFTISRDNAKNTVYLQMISLKPEDTAVYYCAAPLSYYWVYIVRYGYDYWGQGTQVTVSS	low polyreactivity
QVQLVESGGGLVQAGGSLRLSCAASGSIFDVNAMGCARQAPGNERELVAGISWSGGSTYYADSVKGRFTISRDNAKNTVYLQMNSLKPEDTAVYYCNAEGPIYFYFYRGMDYWGQGTQVTVSS	low polyreactivity
QVQLVESGGGLVQAGGSLRLSCAASGSIFDFYVMGWYRQAPGKERELVAGISEGGDSTYYADSVKGRFTISRDNAKNTVYLQMNSLKPEDTAVYYCAKASAKGSYYWGQGTQVTVSS	low polyreactivity
QVQLGDSGGGLVQAGGSLRLSCAASGSIFNKYAMGWYRQAPGKEREFVAPITQGGGRTYYADSVKGRFTISRDNAKNNVYLQMNSLKPEDTAVYYCIYNFNYPYYRYGYWGQGTQVTVSS	high polyreactivity
QVQLVESGGGLVQAGGRLRLSCAASGLIFGANTMGWYSQAPGKERELVAAITSSGGSTYYADSVKGRFTISRDNAKNTVYLQMNSLKPEDTAVYFCNDRSWYPYDYWGQGTQVTVSS	low polyreactivity
QLQLVESGGGLVQAGGSLRLSCAATGSTFYDNAMGWYRQAHGKERELVARIRWSGVRTYYADSVKGRFTISRDNAKNTVYLQMNSLKPEDTAVYYCAAGRPRPHWWSLDYYYWGQGTQVTVSS	low polyreactivity
